# Test results: article PMC3458530
# T1: M.HhaI (bacterial (species ), UniProt P05102 1-327)
# T1 sequence: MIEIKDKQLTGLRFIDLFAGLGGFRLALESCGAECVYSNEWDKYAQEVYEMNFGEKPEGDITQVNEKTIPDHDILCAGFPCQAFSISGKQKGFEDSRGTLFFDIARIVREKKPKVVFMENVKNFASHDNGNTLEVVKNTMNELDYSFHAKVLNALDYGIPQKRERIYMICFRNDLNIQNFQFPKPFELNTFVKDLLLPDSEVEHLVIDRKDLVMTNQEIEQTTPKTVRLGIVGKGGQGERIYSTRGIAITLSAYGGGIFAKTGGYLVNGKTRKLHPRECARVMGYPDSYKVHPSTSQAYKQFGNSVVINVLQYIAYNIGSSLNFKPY
# B1: NUP153 duplex siRNA (dsRNA)
# RNA 1: ACCAAAUAAAACUGGCAAATT
# RNA 2: UUUGCCAGUUUUAUUUGGUTT
# modifications: 3' dTdT on both strands (DNA residues)
# Legend:
# Assay in all cases: EMSA
# DNMT3A full-length = DNMT3A full-length (human, UniProt Q9Y6K1 1-912)
# Sequence of DNMT3A full-length (Q9Y6K1 whole entry): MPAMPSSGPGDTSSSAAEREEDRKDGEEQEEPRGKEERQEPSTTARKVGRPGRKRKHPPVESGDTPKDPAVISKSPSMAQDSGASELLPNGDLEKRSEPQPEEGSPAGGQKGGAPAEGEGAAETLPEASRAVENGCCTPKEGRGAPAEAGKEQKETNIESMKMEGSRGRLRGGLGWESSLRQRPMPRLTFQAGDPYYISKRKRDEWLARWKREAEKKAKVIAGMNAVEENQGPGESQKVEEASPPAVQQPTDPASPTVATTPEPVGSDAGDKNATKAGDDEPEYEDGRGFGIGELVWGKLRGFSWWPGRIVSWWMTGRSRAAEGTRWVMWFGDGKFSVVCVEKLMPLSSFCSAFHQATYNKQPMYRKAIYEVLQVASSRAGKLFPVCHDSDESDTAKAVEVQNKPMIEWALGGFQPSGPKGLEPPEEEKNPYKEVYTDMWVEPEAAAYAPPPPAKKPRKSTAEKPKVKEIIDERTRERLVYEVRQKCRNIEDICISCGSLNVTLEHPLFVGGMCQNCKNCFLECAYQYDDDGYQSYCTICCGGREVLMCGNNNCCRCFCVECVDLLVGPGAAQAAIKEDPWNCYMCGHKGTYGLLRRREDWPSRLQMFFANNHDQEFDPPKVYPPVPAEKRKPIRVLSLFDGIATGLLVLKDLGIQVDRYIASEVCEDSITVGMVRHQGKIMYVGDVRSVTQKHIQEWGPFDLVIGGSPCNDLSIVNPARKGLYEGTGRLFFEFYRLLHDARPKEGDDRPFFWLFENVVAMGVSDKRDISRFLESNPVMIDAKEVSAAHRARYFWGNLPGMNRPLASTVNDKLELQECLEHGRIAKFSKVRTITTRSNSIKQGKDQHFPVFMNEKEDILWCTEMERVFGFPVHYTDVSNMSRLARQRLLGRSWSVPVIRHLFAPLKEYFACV
# M.HhaI = molecular target: T1, M.HhaI
# [1] = molecular target: DNMT3A catalytic domain (cDNMT3A) (human, UniProt Q9Y6K1 612-912)
# Sequence of DNMT3A catalytic domain (cDNMT3A) (Q9Y6K1 612-912): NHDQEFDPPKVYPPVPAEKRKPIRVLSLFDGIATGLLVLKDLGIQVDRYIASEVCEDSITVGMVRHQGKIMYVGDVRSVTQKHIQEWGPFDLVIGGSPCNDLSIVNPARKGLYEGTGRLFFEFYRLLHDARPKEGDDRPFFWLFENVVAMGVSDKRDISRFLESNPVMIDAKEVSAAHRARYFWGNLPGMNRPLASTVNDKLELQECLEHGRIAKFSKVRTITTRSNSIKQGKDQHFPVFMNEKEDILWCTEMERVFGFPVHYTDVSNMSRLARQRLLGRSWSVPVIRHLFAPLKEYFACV
Binder,Kd (DNMT3A full-length),binding result (M.HhaI),binding result [1]
B1,520 nM,,
GAGUUUACCCCGCGCCACCUU (ssRNA) [EFS1 (ssEF1a RNA)],690 nM,no binding,no binding
